The data set “AUC” deals with the molecule itself. The data set is described as follows: AUC.
The target of data set [1] is T1, His-tagged WT APPL1 (5−419) (human, UniProt Q9UKG1 5-419).
T1 sequence (looked up): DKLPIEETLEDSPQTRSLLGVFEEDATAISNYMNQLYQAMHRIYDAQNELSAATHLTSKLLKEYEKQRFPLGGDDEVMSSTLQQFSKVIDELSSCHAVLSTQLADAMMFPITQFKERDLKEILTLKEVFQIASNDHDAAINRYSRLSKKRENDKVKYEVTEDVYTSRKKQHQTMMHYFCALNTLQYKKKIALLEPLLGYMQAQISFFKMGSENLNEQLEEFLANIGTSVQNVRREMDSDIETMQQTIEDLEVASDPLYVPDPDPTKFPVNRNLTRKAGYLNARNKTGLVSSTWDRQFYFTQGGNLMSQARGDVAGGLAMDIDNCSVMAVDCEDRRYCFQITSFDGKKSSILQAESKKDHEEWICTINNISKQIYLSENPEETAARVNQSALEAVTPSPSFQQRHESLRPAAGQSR
The data set is described as follows: SPR.

B1: APPL1 BAR domain (residues 5−265), His tag removed (domain or fragment, human)
chain: GSHMDKLPIEETLEDSPQTRSLLGVFEEDATAISNYMNQLYQAMHRIYDAQNELSAATHLTSKLLKEYEKQRFPLGGDDEVMSSTLQQFSKVIDELSSCHAVLSTQLADAMMFPITQFKERDLKEILTLKEVFQIASNDHDAAINRYSRLSKKRENDKVKYEVTEDVYTSRKKQHQTMMHYFCALNTLQYKKKIALLEPLLGYMQAQISFFKMGSENLNEQLEEFLANIGTSVQNVRREMDSDIETMQQTIEDLEVASDPLYVPD
B1: the equilibrium dissociation constant (Kd) (usually the concentration at which binding is half-saturated) in “AUC” is 130 nM.

B2: full-length Rab5-Q79L coupled to the SPR biosensor chip (natural protein, human, UniProt P20339-1 1-215, looked up)
chain: MASRGATRPNGPNTGNKICQFKLVLLGESAVGKSSLVLRFVKGQFHEFQESTIGAAFLTQTVCLDDTTVKFEIWDTAGLERYHSLAPMYYRGAQAAIVVYDITNEESFARAKNWVKELQRQASPNIVIALSGNKADLANKRAVDFQEAQSYADDNSLLFMETSAKTSMNVNEIFMAIAKKLPKNEPQNPGANSARGRGVDLTEPTQPTRNQCCSN
Regarding B2, in data set [1], binding was characterised by a dissociation constant (Kd) of 900 ± 700 nM; the koff – broadly, the rate constant with which the complex falls apart – is 0.0012 s⁻¹; the kon (in general, the second-order rate constant of association) worked out at 1300 M⁻¹ s⁻¹.

The values are drawn from PMC1933402 (The EMBO Journal, 2007).
